Data: the DeepSol protein solubility set

Test: soluble on expression in E. coli; label from the status in PepcDB or PDB records

Row | Sequence | soluble on expression in E. coli
1 | MGSDKIHHHHHHMKRKIIQQLKLWKDNPARKPLILLGARQVGKTWVMKHFGQTEFENVAYINCDVEPLAKELFAADYSIPRILLTLQAITGTKIEAGKTLIVFDELQEVERGLHSLKYFQENAPEYHVMAAGSLLGITLGKGQSFPVGKVNVMHLYPMDFEEFLMAAGETDLCDLLHQPDWEILKILSLKYVDLLRQYYYVGGMPEVVDCFFQHQNLQEVRDKQTEILDAYRRDISKHTTATESIRIGQVLQSLPSQLAKENKKFIYNVLKKGARATEYELAIQWLMDAGLVHKVSRIKELQMPVKFYEDLGAFKLFLLDCGLLGCMTEAPASQMLVGDNVFKEFKGAFTEQFVLQQLVAQGFSPYYWSSDKTPAEIDFVVQTEHRVIPVEVKAEENVRARSMSEYIKNHPDYQLKGLRISMMGYQDQEWMENIPLFAITKFFG | not soluble
2 | MTKSYDVWWQKGQESDDDMARDHQEAWERTIEMLDTSDIKGKTILDVGCNQGGFLRKLYDTTPFKEGVGIDLARLSLEKAETLKGERPLTYYLTDKPQETNRTFDTAVSTSVLYLIEDIPQHAQDLKEVLKPGGVYYASFADLTNNPSRQFMDDTINQYGATPSQNHSLKHIVDSFVDAGFEVAVMKEPVPDVIDLTHYSDFYLSPNDYLQTLYEESFLIKASVKEGIGKLEHHHHHH | soluble
3 | MTGSCSDLLGFQYNNTVISSATLQETGTLTVANKPIGAHCLVKGYMDQHVSPVDGQTYQIGFEMRLPIDWNGRFLYQGNGGTDGNLVPATGQVGSGGPLTNALHDGFAIISSDAGHNASQNPMFGLDPQARINYGYGAITKLTPMAKNLIKAAYGKLPDRSYAGGTSNGGRHAMIAATRLGDQYDGILASTPGFHLPRAAAAQLYTAQQLRRVATDENDLSTALTLPERKVLAKAILDRCDALDGVTDGLVQDVEACRTAFDIHKHVTVCSSTRDGTCLSTEQIDVLANIYRGPVNSAGQALYATQPFDPGLVGSNWASWKFESSVGTARDPVAVGILFQVPPDPTVTQNSRQFALNFNFDTDYPKLSATNDVYTESSMSFMMPPDELNLDKLRNHGGKMIVVQGTADGVFSVDDTQNWYDQLLQHYKNDAKGTAPEFARFFRVPGMNHTRDGIATDQFDALTALVNWVEYGQAPDKIIATARGAGNPSGQVNTEIPQDWAPDRTRPLCPYPLIARYNGQGDLEHHHHHH | not soluble
4 | MGSDKIHHHHHHMTFVKKALSPDEYGEVLFQHDWMRGEPSDVVCELLAKSERLFFRQDDVLFREGDKMQHCLLVETGKLQAFRHTYGGDEKIFGQFERGEFVAIAAVFMDHGRFPMNIRALSDGHTLMIPRQDIHQFCLQRPELALRLLNYLGKKLYSTINQIDWLTSSSAPQRLADYLLRQHHIQQTQHLTLPVSRGQLATSLGMRGETLSRLMSDWKRQGHITYRGHQVELCDLNYLKELAAEARRTF | not soluble
5 | GPGSMAKWNALSAEIEAARASGDHTKLLAHVHVGLQMLQEIGATNAPIQCESLLCMEASQAHYKMMQYDEALQCAERACESLLRGCKAELQDKAQIAEIEVFMGFVLCKQGGHSAAVEAQELLQKVLHWIDVDAKSAMPMQAVAAVNLRRSVLTGLGLSTTVQATTLASKGETAEAKVLYAKGLDTLIEALNQHIDENDVELVKMTLEAILTSFEGLDDVSQAVATCRKYISWCRRHDDASGVADGESMLTALCARQKIENPLEAEKAKETEEATK | soluble
6 | WQFTPNTGGNTITKVEAENMKIGGTYAGKISAPFDGVALYANADYVSYSQYFANSTHNISVRGASSNAGTAKVDLVIGGVTVGSFNFTGKTPTVQTLSNITHATGDQEIKLALTSDDGTWDAYVDFIEFSL | soluble
7 | MGNIVKPFKQQPSSFAYQPLTVPLIPEVEAQSENLRVFSFKEWMKATKKSRQDRVVIRDDHYIRSFYKGYIDNTTFAPSRTKTGTPVSVVEYLHGSSQALQEWVDIFGVILLELLVGSQDRSTALKNQSSDWTGSFLPDNYKIGEIIDPRIGSDYPVDAATKIGLGPNVRCPYIGHRDMDKC | soluble
8 | MGSMAHSDGIFKKEQAMCLEKIQRANELMGFNDSSPGCPGMWDNITCWKPAHVGEMVLVSCPELFRIFNPDQDMGVVSRNCTEDGWSEPFPHYFDACGFDEYESET | soluble
9 | MGQNQFRWSNEQLREHVEVIDGTRSPHIVLRNATYLNSYIREWMQANIWIYDDRIIYVGEKLPEQLHECEVIDCDGKYVVPSYIEPHAHPYQLYNPETLANHAMQFGTTTFINDNLTLFFTLKRELEHHHHHH | not soluble
10 | MEKQVRVRYAPSPTGHLHIGNARTALFNYLFARHQDGKFIIRIEDTDVKRNVAGGEESQLKYLKWLGMDWDEGVDVGGEFGPYRQTERLDIYKKLYEDLLERGLAYKCYMTEEELEAEREGQIARGETPRYAGNHRDLTEAQVKEFEAEGRIPSIRFRVPADRDYTFKDIVKDEVAFHSNDFGDFVIVKKDGIPTYNFAVAVDDHLMEITHVLRGDDHISNTPKQMMIYEAFGWDIPQFGHMTLIVNESRKKLSKRDESIIQFIEQYKELGYLPEAIFNFIALLGWSPVGEEEIFSQEEFIKMFDAARLSKSPALFDSQKLKWMNNQYMKKQDLDTVVELSLPHLVKAGRIGETLSEQEQAWIRDVIALYHEQMSFGAEIVELSEMFFKDHVDYEEEGQEVLKGEQVPEVLRAFAGQVEALEAMEPAAIKAAIKAVQKETGHKGKNLFMPIRVATTGQTHGPELPNAIALLGKEKVLNRLQKVIG | soluble
11 | MGSDKIHHHHHHMSWHNKVVWSEGLFLRPQLFQQQERYLEHYAHRRAATLSPFFFGFSHYSLDSEALALGKVIVKSASGVFADGTPFDTPGSTPPPAPLTIRAEHLDQLIYLAVPVRVPNAEETTFDNAADSLARNFVFDTELRDTNSIGQGPKTVQLSNLRLRLVPEKELTDAWIGLALTRVKTIRADSSIVLDDTLIPPVAGFGASELLTSWLAKIHELTRLRANSLAIRLTGANGNAGTTAEVSDYLLLQTLNRYEPLLQHLRRVPTTSPADLYALLLSMAGELSTYLRTDSRRPLDSHPAYQHSTPHLCLKPLVDDTHVLLNAVLVRSAQSIELKELGHGMRNAVVDPVDMAGFTAVVLAVHAAMPPDLLQQQFAAQAKAGPSERLPDLVRGHLPGITLQALPVPPRQIPFNAGFVYYELARSGPLWDEVARHGGLALHVAGEFPSLKLELWGVRS | not soluble
12 | MAHHHHHHMADGKAENELMEIEEIAVSDGGAARFAPVEVKSGEEKYNIVWEETGKLLRFDEGENAWKERGQGMAKILQKKEDSGVYMFVFRREGVGKLAAQHYLLRGMTIKVHPQSEKALLWTAFKDYSDDEEGFPERFVLRFASKELADSGLKAFNDALSKTTT | soluble
13 | MGSDKIHHHHHHMKLKYVLYMAAALSLTGCNDSFLERGPQNLNDQSFWISVNDLKAYANAFYGLIPGGVSVLDDTDSDIQVPNDINSFLWGQYVVPTEGGVWQKSNWQNIRNINYFMTHYQSVQAAEADVNIYVAEMRFFRALEYFNKIQLLGDVPWLEVDLNVDSEELYGPKMKRNQVFQKIIEDLDFAIQWLPEAGSEEANRLNKDIARHVKARFCLNEGTHYKYHDELEYASEAEKWLQMAATESDKLITSGRYEIYNTGHPQEDYFNMYRIDDKSDLKEAVLYVDYKTNIREHNMAAAGREAGCGFSKSFVESFLCSDGLPISLSNKYLGDETMRKETANRDPRLKQLILTNDFPTNVTDDLKDSTFVVNEDEFITQHCFTGYRPIKGFNPIYSQALYMKSSFDGIAYRYAETLLINAEAKAELNTITNADLDRTVNQLRDRVGMPHLTVM | not soluble
14 | MDIKKFVARRKALQISQIKLSAGICTQATLSKFERRGRVPSLAILEQLCARLGLTVDELNEDQASSVTQMRQELDHIERQLMMEDYQVVLQALNRIAVSEIAAVPLRMQYYYLSGLLKSLINGAVSDVCFDFDQILDDLDQTHETVFTPLAYVGLGVMYSRLSELAKAQFYFEKVHQAVKQALVNGDDQDYLRLLTMIFYTAEYEATREDFTTSNGLINDGVSLCSEQHVTYYLPRLKYLATANAIQQCQPDEQIQQLLSETVAFARINHNQVVEVKAAALRRRYLQARKHA | not soluble
15 | MLNTLIVGASGYAGAELVTYVNRHPHMNITALTVSAQSNDAGKLISDLHPQLKGIVELPLQPMSDISEFSPGVDVVFLATAHEVSHDLAPQFLEAGCVVFDLSGAFRVNDATFYEKYYGFTHQYPELLEQAAYGLAEWCGNKLKEANLIAVPGCYPTAAQLALKPLIDADLLDLNQWPVINATSGVSGAGRKAAISNSFCEVSLQPYGVFTHRHQPEIATHLGADVIFTPHLGNFPRGILETITCRLKSGVTQAQVAQALQQAYAHKPLVRLYDKGVPALKNVVGLPFCDIGFAVQGEHLIIVATEDNLLKGAAAQAVQCANIRFGYAETQSLI | not soluble
16 | MPASYLHHRSVTQQLPIMSTPHTDFFGLTIPFMQLLGVVPEHSGNGTARTRLPARADLVNSRGDIHGGTLMSVLDFTLGAAIRGDTPEVGVATIDMNTSFMSPGRGDLVIETRCLRRGASIAFCEGEIRDSAGELVAKATATFKIIQRRPGLEHHHHHH | soluble
17 | MAHHHHHHMIGLKSMAGVRDVVRGGSWPARLLDMFTSRAAQESFEFEAVVTDACAAANVPVPSEADLPHARWWKKLCRACQDKAGTTKHGSQLLRSRLTNALTQRLAVEEVYRLNGGEIAKEPAVENPIVIMGLPRSNGHMAAHVLARSGLFLTPRQCDTLSPSLLLDVERRDAFRKKFRGFSYLHPDFLCVRVPQADQVDDDLTLHLMTPQSYAWGLLHGLDEYLLECLEEDQLPVYSEVRRVMELLQWYRKCGHFSEPVTREFNPIDNAMELQAYGTKNVLLRPQWLLYSPFAILSPDAVNTAFPKMKAIWVHRALSQCLPSLCSALCLHNTLYTGKPPSDSQLASMGEKVLGIFGSGTAYAIEYYGKFDQRRMAHWSNRDVKRHATRVATKTLDYFSVELDRYRRMQMISGQTEYVSVSRPLHDAQMPYFCLHDGIIGDVFQDYIYQFAEFAFEKKFGITVKEYTPLAAPADAMAMRGIAHGSSEPRSAPALGAGQPMVGHFQQERRGFR | not soluble
18 | VRQYGDMPSRVVVLHGGPGGAGEVEPLARELGNRGHAVLEPFQTCQTVGGQVDELSSHIERFCAPPVTVIGWSWGAWLGCLLAAQRGMLVRRLILVGSGPFEESYASAIRTTKNSRLTKDQRKEISQLRPTEGDPAEVARFIALSDIADTYARDTSQQPFVAFDGAIHAAVWAEAVDMRRNGALLEAVCAIRCPVVAIHGDYDPRPSEGVQIPLRAALPSADFVQLERCGHKPWQETFAKADFYRALEA | not soluble
19 | MSLSDPHHPHIQTHNAWVEFPIFDAKSRSLKKAVLGKAGGTIGRNNSNVVVIEALRDITMELNLGDRVGLVGHNGAGKSTLLRLLSGIYEPTRGWAKVTGRVAPVFDLGIGMDPEISGYENIIIRGLFLGQTRKQMQAKVDEIAEFTELGEYLSMPLRTYSTGMRVRLAMGVVTSIDPEILLLDEGIGAVDADFLRKAQSRLQNLVERSGILVFASHSNEFLARLCKTAIWIDHGVIRLAGGIEEVVRAYEGEDAARHVREVLAETEGHHHHHH | soluble
20 | MSLVMDSLIIKQLIKSTFDIPLQVTYPNGNIETYNGSNPHVKLKLNKNFSVSELSKDPSIVLGEAVMDGDIEIYGSIQELILSAYRCGDSFLRNSKFSKLIPKQFHDKKHSKSDIQKHYDIGNDFYKLWLDDTMTYSCAYFKHENDSLEQAQLNKVHHILNKLNAQPGGKLLDIGCGWGTLIITAAKEYGLNATGITLSEEQASFITKRIKEEGLENKVTVLIKDYRDIRETYDYITSVGMFEHVGKENLSQYFQTISKRLNINGLALIHGITGQVGGNHGSGTNSWINKYIFPGGYIPRLTENLNHIASAGLQIADLEPLRRHYQKTLELWTKNFHNALPEVQKTHDKRFINMWDLYLQSCAASFESGNIDIFQYLLSKGVSKDTMPMTRDYMYSANEGHHHHHH | soluble
